Measurements taken from US20110300138A1 (published 2011).
Like-named read-outs stand apart in the source and are kept apart here. Each block holds one molecule with its values, some of them ahead of it.

Columns and labels:
[1] = target: TSHR with Tyr206 mutated to Ala (human) (UniProt P16473); assay: cell-based or functional assay
wild type TSHR (human) [2] = target: wild type TSHR (human) (UniProt P16473); assay: cell-based or functional assay
[3] = target: TSHR with Lys209 mutated to Ala (human) (UniProt P16473); assay: cell-based or functional assay
wild type TSHR (human) [4] = target: wild type TSHR (human) (UniProt P16473); assay: cell-based or functional assay; remark: listed apart in the source
[5] = target: TSHR with Asp232 mutated to Ala expressed in CHO cells (human) (UniProt P16473); assay: cell-based or functional assay
[6] = target: wild type TSHR expressed in CHO cells (human) (UniProt P16473); assay: cell-based or functional assay
[7] = target: TSHR with Arg274 mutated to Ala, expressed in CHO cells (human) (UniProt P16473); assay: cell-based or functional assay
[8] = target: wild type TSHR expressed in CHO cells (human) (UniProt P16473); assay: cell-based or functional assay; remark: listed apart in the source
[9] = target: TSH receptor (TSHR), full length human, coated on tubes (human) (UniProt P16473); assay: inhibition of 125I-TSH binding to TSHR coated tubes; 0.1 µg/mL, diluted in assay buffer
[10] = target: TSHR260-alkaline phosphatase (TSHR260-AP) (human) (UniProt P05187); assay: TSHR260-AP bridge ELISA, full length TSHR on wells; 0.005 µg/mL, diluted in HBD
[11] = target: thyroid stimulating hormone receptor (TSHR), full length, coated on tubes (human) (UniProt P16473); assay: inhibition of 125I-TSH binding, TSHR coated tubes; antibody 100 µg/mL in assay buffer
[12] = target: TSHR260-alkaline phosphatase (TSHR260-AP) (human) (UniProt P05187); assay: TSHR260-AP bridge ELISA, full length TSHR on wells; 0.005 µg/mL, diluted in assay buffer
[13] = target: human thyroid stimulating hormone receptor (TSHR), full length (human) (UniProt P16473); assay: 125I-K1-70 Fab (competitor) binding to TSHR coated tubes; test sample 1 µg/mL in HBD serum
[14] = target: human thyroid stimulating hormone receptor (TSHR), full length (human) (UniProt P16473); assay: 125I-K1-70 Fab (competitor) binding to TSHR coated tubes; test sample 0.1 µg/mL in HBD serum
[15] = target: human thyroid stimulating hormone receptor (TSHR), full length (human) (UniProt P16473); assay: 125I-K1-70 Fab (competitor) binding to TSHR coated tubes; test sample 0.01 µg/mL in HBD serum
[16] = target: human thyroid stimulating hormone receptor (TSHR), full length (human) (UniProt P16473); assay: 125I-K1-70 Fab (competitor) binding to TSHR coated tubes; test sample 1 µg/mL in assay buffer
[17] = target: human thyroid stimulating hormone receptor (TSHR), full length (human) (UniProt P16473); assay: 125I-K1-70 Fab (competitor) binding to TSHR coated tubes; test sample 10 µg/mL in assay buffer
[18] = target: human thyroid stimulating hormone receptor (TSHR), full length (human) (UniProt P16473); assay: 125I-K1-70 Fab (competitor) binding to TSHR coated tubes; test sample 0.1 µg/mL in assay buffer
[19] = target: human thyroid stimulating hormone receptor (TSHR), full length (human) (UniProt P16473); assay: 125I-K1-70 Fab (competitor) binding to TSHR coated tubes; test sample 100 µg/mL in assay buffer
[20] = target: thyroid stimulating hormone receptor (full length human TSHR) (human) (UniProt P16473); assay: ELISA, inhibition of TSH-biotin binding to TSHR coated wells; 100 µg/mL, diluted in assay buffer
[21] = target: human thyroid stimulating hormone receptor (TSHR), full length (human) (UniProt P16473); assay: 125I-K1-70 Fab (competitor) binding to TSHR coated tubes; test sample 0.01 µg/mL in assay buffer

% inhibition of TSH stimulation, TSH (2) run at the end of assay, mutated TSHR [1]: 16%
Cyclic AMP produced (pmol/mL), TSH 3 ng/mL, mutated TSHR [1]: 82.9 pmol/mL
Cyclic AMP produced (pmol/mL), TSH (2) 3 ng/mL run at the end of assay, mutated TSHR [1]: 69.5 pmol/mL
Mutated/wild type (%) of cyclic AMP produced; TSH 3 ng/mL [1]: 90%
Mutated/wild type (%) of cyclic AMP produced; TSH (2) 3 ng/mL, run at the end of assay [1]: 64%
Cyclic AMP produced (pmol/mL), TSH 3 ng/mL, wild type TSHR (wild type TSHR (human) [2]): 92.2 pmol/mL
Cyclic AMP produced (pmol/mL), TSH (2) 3 ng/mL run at the end of assay, wild type TSHR (wild type TSHR (human) [2]): 108 pmol/mL
% inhibition of TSH stimulation, TSH (2) run at the end of assay, mutated TSHR [3]: 18%
Cyclic AMP produced (pmol/mL), TSH 3 ng/mL, mutated TSHR [3]: 57.9 pmol/mL
Cyclic AMP produced (pmol/mL), TSH (2) 3 ng/mL run at the end of assay, mutated TSHR [3]: 47.7 pmol/mL
Mutated/wild type (%) of cyclic AMP produced; TSH 3 ng/mL [3]: 73%
Mutated/wild type (%) of cyclic AMP produced; TSH (2) 3 ng/mL, run at the end of assay [3]: 52%
Cyclic AMP produced (pmol/mL), TSH 3 ng/mL, wild type TSHR (wild type TSHR (human) [4]): 79 pmol/mL
Cyclic AMP produced (pmol/mL), TSH (2) 3 ng/mL run at the end of assay, wild type TSHR (wild type TSHR (human) [4]): 91.5 pmol/mL
% inhibition of TSH stimulation; TSH (2), run at the end of assay [5]: 0%
Mutated/wild type (%) of cyclic AMP produced; TSH 3 ng/mL [5]: 70%
Mutated/wild type (%) of cyclic AMP produced; TSH (2) 3 ng/mL, run at the end of assay [5]: 76%
% inhibition of TSH stimulation; TSH (2), run at the end of assay [6]: 0%
% inhibition of TSH stimulation; TSH (2) 3 ng/mL, run at the end of assay [7]: 0%
Cyclic AMP produced; TSH 3 ng/mL [7]: 99.2 pmol/mL
Cyclic AMP produced; TSH (2) 3 ng/mL, run at the end of assay [7]: 100 pmol/mL
Mutated/wild type (%) of cyclic AMP produced; TSH 3 ng/mL [7]: 102%
Mutated/wild type (%) of cyclic AMP produced; TSH (2) 3 ng/mL, run at the end of assay [7]: 92%
% inhibition of TSH stimulation; TSH (2) 3 ng/mL, run at the end of assay [8]: 0%
Cyclic AMP produced; TSH 3 ng/mL [8]: 97.1 pmol/mL
Cyclic AMP produced; TSH (2) 3 ng/mL, run at the end of assay [8]: 109 pmol/mL
Molecule: TSH (ligand)

% inhibition of TSH stimulation, 5B3 10 µg/mL, mutated TSHR [1]: 10%
% inhibition of TSH stimulation, 5B3 100 µg/mL, mutated TSHR [1]: 9%
Cyclic AMP produced (pmol/mL), 5B3 10 µg/mL + TSH 3 ng/mL, mutated TSHR [1]: 74.6 pmol/mL
Cyclic AMP produced (pmol/mL), 5B3 100 µg/mL + TSH 3 ng/mL, mutated TSHR [1]: 75.2 pmol/mL
Mutated/wild type (%) of cyclic AMP produced; 5B3 10 µg/mL + TSH 3 ng/mL [1]: 79%
Mutated/wild type (%) of cyclic AMP produced; 5B3 100 µg/mL + TSH 3 ng/mL [1]: 74%
% inhibition of TSH stimulation, 5B3 100 µg/mL, wild type TSHR (wild type TSHR (human) [2]): 0%
Cyclic AMP produced (pmol/mL), 5B3 10 µg/mL + TSH 3 ng/mL, wild type TSHR (wild type TSHR (human) [2]): 94.5 pmol/mL
Cyclic AMP produced (pmol/mL), 5B3 100 µg/mL + TSH 3 ng/mL, wild type TSHR (wild type TSHR (human) [2]): 101 pmol/mL
% inhibition of TSH stimulation, 5B3 10 µg/mL, mutated TSHR [3]: 2%
% inhibition of TSH stimulation, 5B3 100 µg/mL, mutated TSHR [3]: 3%
Cyclic AMP produced (pmol/mL), 5B3 10 µg/mL + TSH 3 ng/mL, mutated TSHR [3]: 56.5 pmol/mL
Cyclic AMP produced (pmol/mL), 5B3 100 µg/mL + TSH 3 ng/mL, mutated TSHR [3]: 55.9 pmol/mL
Mutated/wild type (%) of cyclic AMP produced; 5B3 10 µg/mL + TSH 3 ng/mL [3]: 74%
Mutated/wild type (%) of cyclic AMP produced; 5B3 100 µg/mL + TSH 3 ng/mL [3]: 64%
% inhibition of TSH stimulation, 5B3 10 µg/mL, wild type TSHR (wild type TSHR (human) [4]): 3%
Cyclic AMP produced (pmol/mL), 5B3 10 µg/mL + TSH 3 ng/mL, wild type TSHR (wild type TSHR (human) [4]): 76.6 pmol/mL
Cyclic AMP produced (pmol/mL), 5B3 100 µg/mL + TSH 3 ng/mL, wild type TSHR (wild type TSHR (human) [4]): 87.7 pmol/mL
% inhibition of TSH stimulation; 5B3 10 µg/mL [5]: 10%
% inhibition of TSH stimulation; 5B3 100 µg/mL [5]: 6%
Mutated/wild type (%) of cyclic AMP produced; 5B3 10 µg/mL + TSH 3 ng/mL [5]: 59%
Mutated/wild type (%) of cyclic AMP produced; 5B3 100 µg/mL + TSH 3 ng/mL [5]: 58%
% inhibition of TSH stimulation; 5B3 10 µg/mL [6]: 0%
% inhibition of TSH stimulation; 5B3 100 µg/mL [6]: 0%
% inhibition of TSH stimulation; 5B3 10 µg/mL [7]: 0%
% inhibition of TSH stimulation; 5B3 100 µg/mL [7]: 4%
Cyclic AMP produced; 5B3 10 µg/mL + TSH 3 ng/mL [7]: 106 pmol/mL
Cyclic AMP produced; 5B3 10 µg/mL + TSH 3 ng/mL (second row printed with 10 µg/mL) [7]: 95.3 pmol/mL
Mutated/wild type (%) of cyclic AMP produced; 5B3 10 µg/mL + TSH 3 ng/mL [7]: 92%
Mutated/wild type (%) of cyclic AMP produced; 5B3 10 µg/mL + TSH 3 ng/mL (second row printed with 10 µg/mL) [7]: 79%
% inhibition of TSH stimulation; 5B3 10 µg/mL [8]: 0%
% inhibition of TSH stimulation; 5B3 100 µg/mL [8]: 0%
Cyclic AMP produced; 5B3 10 µg/mL + TSH 3 ng/mL [8]: 116 pmol/mL
Cyclic AMP produced; 5B3 10 µg/mL + TSH 3 ng/mL (second row printed with 10 µg/mL) [8]: 121 pmol/mL
Inhibition of binding (%) [9]: -5%
Molecule: 5B3 IgG (antibody)

Mean absorbance at 405 nm (absorbance at 405 nm) [10]: 0.02
Inhibition of binding (%) [11]: 82.9%
Mean absorbance at 405 nm (absorbance at 405 nm) [12]: -0.009
Inhibition of binding (%) [13]: 8.1%
Inhibition of binding (%) [14]: 6%
Inhibition of binding (%) [15]: -4.4%
Inhibition of binding (%) [16]: 41.5%
Inhibition of binding (%) [17]: 80.4%
Inhibition of binding (%) [18]: 21.9%
Inhibition of binding (%) [19]: 93.3%
Inhibition of binding (%) [20]: 54.3%
Inhibition of binding (%) [21]: 10.9%
B1: 5C9 IgG (antibody, from another filing, V domains shown)
VH: EVQLVESGGGLIQPGGSLRLSCAASGFTVSSNYMSWVRQAPGKGLEWVSVTYSGGSTSYADSVKGRFTISRDNSKNTLYLQMNSLRAEDTAVYYCARGGRYCSSISCYARSGCDYWGQGTLVTVSS
VL: AIQMTQSPSSLSASVGDRVTITCRASQSISNYLNWYQQKPGKAPKLLIYAASSLQSGVPSRFSGSGSGTDFTLTISSLQPEDFATYYCQQSYSSPSTTFGQGTKLEIK
